Results published in the supplement of paper PMC12338614.

B1: library; numbered along this chain (parent)
chain: MEVVDPQQLGMFTEGELMSVGMDTFIHRIDSTEVIYQPRRKRAKLIGKYLMGDLLGEGSYGKVKEVLDSETLCRRAVKILKKKKLRRIPNGEANVKKEIQLLRRLRHKNVIQLVDVLYNEEKQKMYMVMEYCVCGMQEMLDSVPEKRFPVCQAHGYFCQLIDGLEYLHSQGIVHKDIKPGNLLLTTGGTLKISDLGVAEALHPFAADDTCRTSQGSPAFQPPEIANGLDTFSGFKVDIWSAGVTLYNITTGLYPFEGDNIYKLFENIGKGSYAIPGDCGPPLSDLLKGMLEYEPAKRFSIRQIRQHSWFRKKHPPAEAPVPIPPSPDTKDRWRSMTVVPYLEDLHGADEDEDLFDIEDDIIYTQDFTVPGQVPEEEASHNGQRRGLPKAVCMNGTEAAQLSTKSRAEGRAPNPARKACSASSKIRRLSACKQQ

Variants of: B1
Test: STK11 functional score (HeLa growth suppression), rescaled enrichment; synonymous median = 1, nonsense median = 0 (normalised score)
Conditions: with HeLa; variant type: missense
Procedure, shortened: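 Functional scores are post/pre-selection log ratios corrected to wild type, rescaled to synonymous and nonsense medians, merged over codons and replicate transfections, and given bootstrapped error. They come from POPCode libraries of codon-optimised STK11 integrated by Bxb1 at an AAVS1 landing pad in HeLa, three regions each transfected three times, with BFP-negative, mCherry-positive integrants sorted by FACS and tiled gDNA amplicons sequenced on NextSeq.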

STK11 functional score, by site and new letter:
K431: S 1.64; C 1.59; F 1.59; L 1.6; M 1.25; Y 1.48
L427: E 1.53; I 1.36; W 1.53; H 1.4; N 1.63; A 1.6; V 1.21; R 1.56; K 1.53; S 1.55; F 1.31; T 1.59; C 0.695; Y 0.805
R426: S 1.5; Y 1.54; D 1.42; T 1.17; F 1.3; G 1.1; K 1.49; V 1.62; H 1.61; L 1.4; N 1.58; I 1.15; C 1.12; A 0.525
A429: D 1.52; L 1.48; Q 1.56; E 1.55; K 1.49; I 1.63; V 1.47; R 1.5; S 1.29; W 1.21; T 0.896; P 0.559; C 1.62; Y 1.49; G 1.12
S428: F 1.61; N 0.872; W 1.62; I 1.62; K 0.386; A 1.14; L 0.874; D 1.21; V 1.56; Y 1.39; C 1.4; G 1.6; E 1.63; T 1.56
Q432: G 1.61; R 1.6; W 1.59; D 1.46; Y 1.63; L 1.55
R425: Y 1.54
Q433: H 1.2; R 0.937
C430: F 1.48; V 1.03; W 1.02; S 1.56; G 1.55
